Assay results: publication PMC2552378

B1: TbEK1 (formerly TbC/EK1) (Trypanosoma brucei brucei TREU927) (protein)
chain: MEVAVGHVRHVPCTVPDDPASRMRAIREIVARHCALFMQKGGDVGRSQCASNLGNNITSGTSNGFDADRLQVVAFSGGITNEMYHVYCEGWEAHSVVMRIFGKETERVISRGDELFYQSLFIPTYVRGQNFLVYQYLYQYEPLPFVEMVKEYEKIARGIAFFHVRATLEARSDYSVTPVGGVVGAGGATVGPTNTCSRFDLEENYIVHSLTEWVEQALSETVQEKVDATKRATYASVAQQLKEEAQWLLPLMQRHSPELGESTCHNDLLSGNIMRQKSDGALKIIDFEYAKRNYFLFDIANHFNEYTGLECDYATYFPSEEHMKKFVTTYMCAMREELEKHAEEAKRRQLTDIIPGQQHFFMCDVGGVEGDKRIHRMVQLVKLLTLASHLSWSVWALLQEAVSKTDMDFLRYSQLRLSRYLETRKEFSASS
B2: TbC/EK2 (Trypanosoma brucei brucei TREU927) (protein)
chain: MALRPFPLGNTPLHAVIRRSAREFECVEAVPASNAVRSPSTASWVSAESLDSIISLANRTSEEMEVDQLIYRLCRSLYHVAKKKSAQIHCHPNHQERQQQQQQASSSGWRSVECEGHFSNMRGREDWCPLLHLFDPRSYYKVMGQPSQHDGCKLCGDVVGTESSPEGVSQWLMSELSVTRLTGGNSNHVYRLGHASFPKKAVLLRVYGDGGGGDVIDRARDIKVMRLMSKSEMGPGLLHTFHWGRVEEFMDGVLTCTTEKLLTSPSLLADVYGGLSKMHQLDYTPLLPENMRTKGMSNGHNSSQSVSDTVSKSGGGQEGPDGTVGGVNELESTCHTSFERVCLRLLRLVSLNVVEEHRHSLESWLAGEVMFVRRELQYRGIPVVLSHNDLNPGNILLSDGAGEASGTVFSDEELRVENTPLSKRYVTRKGKNMNLVERRGFLFIDFEYADANYRCFDLGNTLCELDYDYTRGTEAGGRGFIKYLFVFPPPAMEEAWRGLGEEYPRMPELIYDAWRRGVCDGSSDIGSVALLAVRRYFAERDNVPLETVELSEAQVGEVLLGMLASHLYWTIWSMTMGSAPDNCVECEDCDDQMFAVGGSGLDYMRYGECRLREYIALRGWLAEKGLLS

Tests used:
Test in all cases: purified protein
purified protein [1] = substrate: NCCO; format: biochemical, Trypanosoma brucei; conditions: 5 mM ATP, 6 mM MgCl2, 150 mM KCl, 50 mM Mops pH 7.8
purified protein [2] = substrate: Nc1ncnc2c1ncn2[C@@H]1O[C@H](COP(=O)(O)OP(=O)(O)OP(=O)(O)O)[C@@H](O)[C@H]1O; conditions: 6 mM MgCl2, 150 mM KCl, 50 mM Mops pH 7.8
purified protein [3] = substrate: C[N+](C)(C)CCO; format: biochemical, Trypanosoma brucei; conditions: 5 mM ATP, 6 mM MgCl2, 150 mM KCl, 50 mM Mops pH 7.8

Protein	Km (purified protein [1])	kcat (purified protein [1])	kcat/Km (purified protein [1])	Km (purified protein [2]; 2 mM ethanolamine)	kcat (purified protein [2]; 2 mM ethanolamine)	kcat/Km (purified protein [2]; 2 mM ethanolamine)	Km (purified protein [3])	kcat (purified protein [3])	kcat/Km (purified protein [3])	Km (purified protein [2]; 2 mM choline)	kcat (purified protein [2]; 2 mM choline)	kcat/Km (purified protein [2]; 2 mM choline)
B1	18.4 ± 0.9 µM	6.56 s⁻¹	357000 M⁻¹ s⁻¹	219.2 ± 29 µM	6.56 s⁻¹	29900 M⁻¹ s⁻¹						
B2	2560 ± 310 µM	12.91 s⁻¹	5040 M⁻¹ s⁻¹				31.4 ± 2.6 µM	12.91 s⁻¹	411000 M⁻¹ s⁻¹	20.6 ± 1.96 µM	12.91 s⁻¹	627000 M⁻¹ s⁻¹
